koff and mean residence time data for one substance are collected here from article doi:10.1101/2021.04.05.438428.

This assay deals with microtubule (MT) of HeLa cells (human (endogenous in HeLa)) (UniProt P68363). Put plainly: single-molecule live-cell imaging.
Chain of UniProt P68363 (P68363 whole entry): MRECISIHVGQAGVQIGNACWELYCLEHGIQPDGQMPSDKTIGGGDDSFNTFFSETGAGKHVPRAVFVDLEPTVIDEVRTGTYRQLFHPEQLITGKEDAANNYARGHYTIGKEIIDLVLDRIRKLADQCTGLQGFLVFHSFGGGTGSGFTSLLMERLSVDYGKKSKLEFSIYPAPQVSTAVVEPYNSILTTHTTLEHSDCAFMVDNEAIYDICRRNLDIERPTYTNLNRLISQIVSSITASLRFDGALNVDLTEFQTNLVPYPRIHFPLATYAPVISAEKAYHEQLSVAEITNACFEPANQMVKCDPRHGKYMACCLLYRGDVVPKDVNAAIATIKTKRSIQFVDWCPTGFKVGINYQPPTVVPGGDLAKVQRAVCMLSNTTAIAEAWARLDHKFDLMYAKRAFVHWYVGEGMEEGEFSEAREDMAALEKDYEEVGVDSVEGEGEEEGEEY

One may read the koff as the rate constant with which the complex falls apart. “mouse dynein heavy chain (DYNC1H1) tagged with GFP (from UniProt Q9JHU4 1-4644) (natural protein)” displayed a dissociation rate constant (koff) of 1.7 s⁻¹ and a mean residence time of 0.55 s.
